Data from patent publication US8962263B2, “Methods and compositions for detecting the activation state of multiple proteins in single cells” (The Board of Trustees of the Leland Stanford Junior …, priority 2001, dated 2015).
Like-named read-outs stand apart in the source and are kept apart here.

Legend:
Pyk2 = test: sICAM-2 induced Pyk2 phosphorylation (phospho-tyrosine based ELISA, chemical genetic approach); format: cell-based; conditions: phospho-tyrosine based ELISA
How it was run: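 Chemical genetic approach: sICAM-2-stimulated cells treated with selected kinase/pathway inhibitors (PKC inhibitors BIM I, BIM II, staurosporine; tyrphostin A9; neomycin; piceatannol); phosphorylation status of Pyk2 and Syk measured by phospho-tyrosine ELISA.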

ezrin = test: phosphotyrosine-protein based elisa for ezrin tyrosine phosphorylation upon ICAM-2 ligation; format: cell-based, human; conditions: Jurkat cells
[1] = system: CD56 CD8 cytotoxic lymphocyte subsets; test: intracellular perforin and granzyme-A in CD56CD8 subsets of human PBMC by flow cytometry; format: cell-based
Method: IL-2, activated PBMC (shown in A-1 and A-3) were mock-treated (IgG) (A-2) , ICAM-1, (A2), ICAM-2, (A4), or ICAM-3, (A4) treated (10, μg/ml of FC fusion protein) for 12 hrs prior to incubation with target HL60, cells at a 50:1, E:T ratio for 4, hrs. Cells were then prepared for flow cytometry with CD8-CY5PE, CD56-PE surface stains, and perforin-CY5, and granzyme-A-FITC intracellular stains. Cells were gated for CD56^+CD8^low, CD56^+CD8^med, CD56^+, CD8^high, CD56^−, CD8^−, , CD56^−-CD8^high, populations as shown in A-1 and A-3 and population frequencies within appropriate gate. […] Results are representative of 3 independent experiments and were similar at 25:1 and 12.5:1 E:T ratios (data not shown). Manual calibration was performed. […] Perforin percentage was calculated from the following equation where MFI equals mean fluorescent intensity: 100×[(MFIexperimental−MFIisotype mAb)/(MFIcontrol−MFlisotype mAb)] Unstimulated cells were used as control.
Target cell lysis was measured by flow cytoemtric based detection of CFSE labeled HL60 cells. HL60 cells were labeled with 1 μg of CFSE (30 min, 37° C.). Targets were washed twice and mock treated, IL-2 activated (100 U/ml), CD3/CD28 activated (1 μg/ml), or treated with ICAM2 beads or soluble ICAM-1, -2, or 3 (10 μg/ml, 30 min, 37° C.) before plating at 10^4 target cells/well of a 96-well round bottom plate. CTLs were added at 50:1, 25:1, and 12.5:1 E:T ratio, and incubated at 37° C. for 4 hrs. Cells were then processed for multiparameter flow cytometry and intracellular perforin stain. Percent specific lysis was calculated by the following equation: % specific lysis=100-100×(experimental HL60 count/total control HL60 count). HL60 counts were detectable by the CFSE fluorescence. Percent perforin was calculated by the following equation: % perforin=100×[(experimental perforin MFI−isotype mAb MFI)/(total perforin MFI−isotype mAb MFI)]. MFI refers to mean fluorescent intensity of flow cytoemtric based intracellular detection. Cell conjugates were determined by flow cytometry as described (Morgan et al., 2001). Chemical inhibition was done at 10 μM of indicated compound (30 min, 37° C.) prior to stimulation as indicated. All experiments were performed in triplicate.

p44/42 MAPK = test: phospho-p44/42 MAPK immunoblot and p44/42 MAPK kinase assay in soluble ICAM-2 treated Jurkat cells; format: cell-based, human

Row | Molecule | sICAM-2 induced Pyk2 phosphorylation (Pyk2) | tyrosine phosphorylation of ezrin (ezrin) | granzyme-A negative population ([1]; CD56+CD8high population) [%] | changes in intracellular perforin or granzyme-A ([1]; CD56+CD8low population) | frequency of the perforin negative population ([1]; CD56+CD8med population) [%] | p44/42 MAPK phosphorylation and activity on ICAM-2 treatment (p44/42 MAPK) | p44/42 MAPK phosphorylation and activity on ICAM-2 treatment (p44/42 MAPK; listed as soluble ICAM-2)
1 | CN(C)CCCn1cc(C2=C(c3c[nH]c4ccccc34)C(=O)NC2=O)c2ccccc21 [bisindolymaleimide I] | affected | minor affects |  |  |  |  | 
2 | ICAM-2: biochemically purified soluble human ICAM-2 protein from retrovirally transduced NIH3T3 cells; ICAM-2-FC fusion also used (protein, UniProt P13598 25-223, looked up, extracellular domain, biochemically purified soluble human ICAM-2 protein from retrovirally transduced NIH3T3 cells; ICAM-2-FC fusion also used) extracellular domain: KVFEVHVRPKKLAVEPKGSLEVNCSTTCNQPEVGGLETSLDKILLDEQAQWKHYLVSNISHDTVLQCHFTCSGKQESMNSNVSVYQPPRQVILTLQPTLVAVGKSFTIECRVPTVEPLDSLTLFLFRGNETLHYETFGKAAPAPQEATATFNSTADREDGHRNFSCLAVLDLMSRGGNIFHKHSAPKMLEIYEPVSDSQ |  |  | 58.3 | no significant changes | 21.5 | induced both p44/42 MAPK phosphorylation and activation | induced p44/42, MAPK phosphorylation and activity
